In the supplement of paper PMC12764529:
± gives the half width of the 95% confidence interval.

Key:
[1] = folding stability dG unfold from trypsin proteolysis; higher = more stable
Procedure: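 Folding stability of de novo designed mini-proteins (<80 aa, no Cys; designed by TrROS, TrMRF, ProteinMPNN and the joint model) was measured by cDNA display proteolysis with trypsin and chymotrypsin. Each protease was used at 11 concentrations in a threefold dilution series plus a no-protease condition. K50 was inferred by Bayesian fitting of sequencing counts, and dG unfold was derived against a sequence-predicted unfolded-state K50 (Tsuboyama et al. method). Sequences shown include variable-length N-terminal GS-type padding (SAGGSAGG...) inside a display construct carrying a PA tag. Rows were kept only if the AF2 dimer inter-PAE was >15, to exclude likely homo-oligomers.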

[2] = folding stability dG unfold from chymotrypsin proteolysis; higher = more stable
Procedure, shortened: (§1)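 Designed mini-proteins with no cysteine and under 80 residues were kept only if AlphaFold2 dimer inter-PAE was above 15. In a PA-tagged cDNA display construct, they were digested with trypsin and chymotrypsin and then sequenced. K50 was inferred by Bayesian fitting of counts, and unfolding free energy was derived per protease or combined against a sequence-predicted unfolded-state K50 and a shared folded-state K50.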

[3] = folding stability dG unfold (combined trypsin and chymotrypsin); higher = more stable
Procedure, shortened: as §1

Sequence | folding stability dG unfold [1] [kcal/mol] | folding stability dG unfold [2] [kcal/mol] | folding stability dG unfold [3] [kcal/mol]
KIKELAKKLGLNVTVKVEKKPIKNPDGSTYTITKVEVTVDKKNKTITIKVEVKNKKTNKTITKTYTIKLKKS [r1_448_TrROS_Hall] | 2.37 ± 0.12 | 2.26 ± 0.11 | 2.64 ± 0.24
KKTYTAEEIRKLAEKLGLEVPEGDLEIKVVFKDNKKTYTIKPGEEYTLEEILEKLKKEKPNIVKIEIKKKPS [r1_135_TrROS_Hall] | 1.32 ± 0.18 | 2.31 ± 0.034 | 1.99 ± 0.27
KKVKIEIEVEKVEDGYYVVRIKVKFEETEETIELELVFPKSLEEVLEKIKELLPEGQITEVEIEVYPLPEPS [r1_399_TrROS_Hall] | 3.89 ± 0.23 | 3.13 ± 0.25 | 3.72 ± 0.67
KKVKIEIEVLSKTEEGYVMIAKAKYEEVEKVFEKPYKSKNPIETIKKIVKELFPGPEVTEVKVKYYPKEKKS [r1_399_TrMRF] | 1.11 ± 0.053 | 1.47 ± 0.11 | 1.35 ± 0.17
KKYKVPVKEALKVAKKLIEKGYEKVKITAYLPNGEKYEIEDIKEFEEELKKKFPGIKPENLTVEIEVIPKES [r1_325_TrMRF] | 3.26 ± 0.15 | 4.49 ± 0.26 | 4.16 ± 0.37
KTIEIWIPMPMGQAETFVKSLARKLGLPPDDYKVDNVEMQPNKDGWPYVKMEIKLPNNGKEIEIIMPPGWFS [r1_21_TrROS] | 1.67 ± 0.061 | 2.6 ± 0.059 | 2.38 ± 0.23
KTIMIWFPFKSWEDVRNLIRDLARELNLPPGRDVDVKVERHPNNGYFRVTVTVSNPNGEKIDITIWFPMWDS [r1_84_TrROS] | 3.42 ± 0.1 | 5.26 ± 0.15 | 4.91 ± 0.16
KTVHIPINGMPLDEMLDMARDALREDPDEGKTITIWVPGNPEWLENLGFDKIEPYKDPERPYMRIKFKVPPS [r1_467_TrROS] | 0.298 ± 0.17 | 1.24 ± 0.22 | 0.816 ± 0.14
KYELVATLSRPNPETGTVVNVSVYRFEDGSYRVLVDVSTFYRTPDGSLRTSSSRAVFLVPEDVDPRELVESS [r1_243_TrMRF] | 2.75 ± 0.039 | 3.57 ± 0.081 | 3.17 ± 0.11
LEIIEKLKFPGYKITSVSIQRTNNKVTIVIHFRHPKEYYMISLEIDPPNGGIKITEVHPIKPGESMDDMMNS [r1_383_TrROS] | 3.09 ± 0.15 | 3.75 ± 0.088 | 3.43 ± 0.33
MDVKIEPYRDPETGELYYKAVVKFKDGKEKLIEVKVPPNGKPIAKIYDPNGKLLAEKEFDSIEEALKEALAS [r1_478_TrMRF] | 3.3 ± 0.35 | 4.24 ± 0.16 | 3.91 ± 0.37
MEAEELATTLAAEALAPLPRPFEIDPENNEVRVPGGGELAELPIRVVLVDEDGEIVEERIVPVRIRAEEPGS [r1_318_TrMRF] | -0.362 ± 0.14 | 0.878 ± 0.083 | 0.542 ± 0.11
MEEEEKKKAETPEIPEEVAREKALEVARELGLEEIEEIEVLSASPEGYVTVRITLPTGGEVEITIPISELES [r1_435_JUSTAS] | 2.01 ± 0.13 | 2.76 ± 0.08 | 2.54 ± 0.18
MEEIKNLPGVKYEPIIEDGEIRLVRFEIPKEVFEKFGKPPVILLVEFSKDGKYRILPESIPKLLELGIIPGS [r1_256_TrMRF] | 1.85 ± 0.023 | 2.52 ± 0.058 | 2.27 ± 0.052
MIIIPNATPEEVKKIILDAAKKGKEIEILIEVDPNLGPKVIKALKDLPYVKKVEPLPDGSIKVYIDKKNLKS [r1_324_TrMRF] | 1.71 ± 0.038 | 3.24 ± 0.048 | 2.89 ± 0.093
MITPEEAIELAKEKAKELLEKAGPGTPSVVVEIKAEDGRVVKVEVDPVKKVINITVYDKGGKKVAEKIIEES [r1_370_JUSTAS] | 2.06 ± 0.1 | 2.67 ± 0.099 | 2.38 ± 0.11
MKEITVTLPVPEEVLAAIRAGKPLPLEEIKERVKEEIAKRLGYKNVTIKSVKVEKLPDGSLVIKVKVEFLPS [r1_290_JUSTAS] | 5.45 ± 0.43 | 3.58 ± 0.044 | 4.15 ± 0.087
MKEYLIKIKITITDPNGKKREIEITVLVPAEELTEEQLKELLEKAKELAEKLKEKGYEVKVEVEIIPLEELS [r1_221_TrROS_Hall] | 3.83 ± 0.27 | 4.23 ± 0.21 | 4.25 ± 0.27
MKIEIEIEREEDRVIVRIKIERKDGKEIELELEVPSLEEALEAIEKILASLPPEEVKIVEIEIYNADGEKIS [r1_169_TrROS_Hall] | 2.53 ± 0.14 | 1.85 ± 0.086 | 2.21 ± 0.2
MKIIDVVPTPDGLIVVIKVVFPNTEEAYVSASDLDKLIKEIFERFGVKPEYLKITDIKAFSPEELKEFLEES [r1_119_TrMRF] | 2.37 ± 0.072 | 2.98 ± 0.031 | 2.78 ± 0.075

Sequence | folding stability dG unfold [1] [kcal/mol] | folding stability dG unfold [2] [kcal/mol] | folding stability dG unfold [3] [kcal/mol]
MKKKVTISIKRKSEVKYTKFPNGEVVPVEDLGGLTVTIEVPESELEELLKKLDIPEDEIEEITVTITPEASS [r1_351_JUSTAS] | 1.08 ± 0.18 | -0.175 ± 0.8 | 0.648 ± 0.42
MKLLKITITITVTRQFPTVPVTSTTTITLEYTTPPDDPAAIEEAKKTAEEIAKKLGATDVTVTTEEVVLESS [r1_346_JUSTAS] | 3.34 ± 0.11 | 4.08 ± 0.057 | 3.84 ± 0.11
MKPIPAEEIRDLAQKLGLPLPPGQIQIKVRHNNKKKTFPIPAGDPITIDDIVENMQQQNPNIKDIEIVIHPS [r1_135_TrROS] | -0.754 ± 0.53 | -0.389 ± 0.28 | < -1
MKVEIVEVEYDEETKRVRVKLKVDGKLVEIEFDLESGKVTVRIYEDGEEIEIEAESVEDALEKAKELVKEKS [r1_177_TrROS_Hall] | 2.02 ± 0.2 | 1.69 ± 0.12 | 1.93 ± 0.28
MLVVEVPAEELSPEQVRERIRAALRAAREAGIRDARIVIVVEASEEQRERLRRELRELAEEEGLEVEIVERS [r1_387_TrROS_Hall] | 4.83 ± 0.17 | 5.52 ± 0.2 | 5.34 ± 0.18
MMLIIKVKNKKTGKTETIKIDMSVEEIKNAIKELKKKNPNAKVTIIGVKTEEVRKALKEAGIEKIEVKPLPS [r1_114_TrROS_Hall] | 3.01 ± 0.23 | 3.5 ± 0.22 | 3.51 ± 0.31
MMYLIRVTVYDEETEEEVEEIEILIELSEEELKNMSEEEREKLLEEALKKAEELAKEYPNLKIEVEIVELPS [r1_115_TrROS_Hall] | 3.52 ± 0.13 | 4.01 ± 0.09 | 3.83 ± 0.14
MNIKVTSVLPDGTVVVTAEAPLPDGSSIRVTAARRGKDSYVLVTVNVYPTKVVADIKEVAPVSPGSPEEGGS [r1_53_TrMRF] | 2.21 ± 0.085 | 3.3 ± 0.12 | 2.88 ± 0.12
MPARVEARRIPDEPRLEVVVDFPGYRVVVRVDEGGRVEVEVVWEENVGPEERAAAEEAAEAFAREVAEALGS [r1_468_TrMRF] | 0.401 ± 0.19 | 1.05 ± 0.039 | 0.839 ± 0.099
MPLGLESERYPNGAPTIESVEVPEDGSVKITLYFPETGEKVEYTLPPNIPPGTEYEIDLPGPTGTGRLRLGS [r1_43_TrMRF] | -0.204 ± 0.2 | 1.65 ± 0.15 | 1.27 ± 0.2
MPNLKPALLVIPMKVESIEEAEEKVLAFAEELAEAFPNIKKIEVEILEIDEENGIVIAKITVEAEDSALDAS [r1_52_TrMRF] | 2.12 ± 0.1 | 2.34 ± 0.051 | 2.13 ± 0.19
MRIEIRVEKVEDGFYKVTIRLEETGETLELVVPKSLEEAKAAAEELLRELFPDVKVTEIRVERVPLPEEDLS [r1_80_TrROS_Hall] | 3.03 ± 0.077 | 2.77 ± 0.063 | 2.9 ± 0.07
MRVVFEATYTDPEGVPVTETFVIPEEVLEEIEREGRPITREELVELAEEIIRDYTKEHDADVEFRFVEFEPS [r1_174_TrMRF] | 1.91 ± 0.086 | 2.52 ± 0.025 | 2.27 ± 0.1
MSEEELRELEERLAAPGPVEVRVEVEVREEEGDEPVFVFRVRYYRPEPGEELGEEEIVVPEEELEELLRELS [r1_415_TrMRF] | 1.34 ± 0.065 | 2.31 ± 0.086 | 1.93 ± 0.15
MTEEEVRAEAEARARALAEERGVEITAVDIDGEVEQVVETTTRPTPDGRPVTETTSKKIKTKVRATLRPPRS [r1_91_JUSTAS] | -0.107 ± 0.27 | 1.39 ± 0.053 | 1.09 ± 0.14
MTIVIDTPVPPEEAEALLRELAEELGYSPELMEVEERVFSEGEDGRPYVTLTVRLPGLGVTITLRLPPDAAS [r1_21_JUSTAS] | 3.61 ± 0.11 | 3.681 ± 0.02 | 3.66 ± 0.041
MTPEERIEEIEAKARELLRELGLPPEVRLTVEAEVRPRPDGRLELRVRVTVEFPGPPGAIPPELLEALAEES [r1_98_TrMRF] | 2.7 ± 0.081 | 2.38 ± 0.086 | 2.53 ± 0.14
MTPTFTVTELPPDLLRVEYTDPVTGKRATFTLPVSPVGDGVRLSAEVDAEGLPEEVAAAIRDAALAALAAAS [r1_403_JUSTAS] | 1.48 ± 0.021 | 2.3 ± 0.023 | 2.06 ± 0.042
MVELVEVTRENGLVTVTVANPIPGATLTVEVRDPEGKVLASSTSPSPTVTVTAEIPPDEDFSVTVTQTPPAS [r1_382_JUSTAS] | 3.43 ± 0.14 | 3.99 ± 0.2 | > 6
MYLVRIKIEYKTEDGEKVEKEITLLVEPSEEEAKEKAEELARKIAEELGLSEEEIKKIEVEVVKLGEELEES [r1_159_TrROS_Hall] | 4.05 ± 0.22 | 4.37 ± 0.12 | 4.29 ± 0.15
